Assay results: patent US20150079112A1 (SAMSUNG ELECTRONICS, published 2015)
Residue numbers refer to the chain shown, from its start.

Tests used:
Experiment in all cases: ELISA, coated antibody 1000 nM, 250 ng FLAG-tagged mutant Ang2, anti-FLAG-HRP, OD450
[1] = biological target: T1, mutant Ang2 protein, S417 substituted with alanine, FLAG-tagged at its N-terminal (human, UniProt O15123 19-496, limits assumed)
T1 sequence: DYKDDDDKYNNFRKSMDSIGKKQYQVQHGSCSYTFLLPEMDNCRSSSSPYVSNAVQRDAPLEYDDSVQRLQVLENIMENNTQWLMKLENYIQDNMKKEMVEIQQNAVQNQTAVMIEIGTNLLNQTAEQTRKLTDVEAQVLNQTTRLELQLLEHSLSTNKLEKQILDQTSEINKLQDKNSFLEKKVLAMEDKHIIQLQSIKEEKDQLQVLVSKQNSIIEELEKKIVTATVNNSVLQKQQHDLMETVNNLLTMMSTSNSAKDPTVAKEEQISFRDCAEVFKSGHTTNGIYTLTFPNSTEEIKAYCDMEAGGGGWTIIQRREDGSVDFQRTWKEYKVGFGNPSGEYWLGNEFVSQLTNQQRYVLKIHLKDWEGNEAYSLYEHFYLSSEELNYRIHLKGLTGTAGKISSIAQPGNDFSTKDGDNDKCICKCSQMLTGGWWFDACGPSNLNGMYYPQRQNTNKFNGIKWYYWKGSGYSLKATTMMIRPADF
Experimental: (§1) Each well of a 96-well MaxiSorp™ flat-bottom plate (Nunc) was coated with 50 ul (microliter) of 1000 nM antibody. Then, the plate was washed five times with 0.05% (v/v) Tween-20-containing PBS (PBST) and blocked with 1% (v/v) BSA-containing PBS at a room temperature for 2 hours. 250 ng of each mutant Ang2 protein obtained by substituting S417, Q418, P419, N421, I434, D448, A449, P452, Y460, N467, K468, or F469 residue of Ang2 protein tagged with a FLAG sequence ([…], Sigma) at its N-terminal with alanine was added to each well of the plate, which was then allowed to react at a room temperature for 2 hours.
(§2) The plate was washed five times with 0.05% (v/v) Tween-20 containing PBS, reacted with an anti-FLAG antibody (SIGMA) conjugated with HRP which was diluted in 1% (v/v) BSA-containing PBS at a ratio of 1:5,000 (v/v) at a room temperature for 1 hour, and washed five times with 0.1% (v/v) Tween-20-containing PBS.
(§3) Finally, 50 ul of TMB substrates (Cell signaling) was added to each well of the plate to induce color development at a room temperature for 3 min. and the reaction was ceased by the addition of 50 ul of Stop solution (Cell signaling) and then, OD450 values were measured on a plate reader (Molecular Devices). By comparing binding affinities with mutated Ang2 to those of unmutated Ang2, each epitope of Ang2 antibodies was identified. The thus obtained measurement results of the binding affinities (%) with mutant Ang2 against the binding affinity with the native Ang2 are shown in the following Table 8.

[2] = biological target: T2, mutant Ang2 protein, D448 substituted with alanine, FLAG-tagged at its N-terminal (human, UniProt O15123 19-496, limits assumed)
T2 sequence: T1 sequence with A407S, D438A
Experimental: as §1, §2, §3

[3] = biological target: T3, mutant Ang2 protein, K468 substituted with alanine, FLAG-tagged at its N-terminal (human, UniProt O15123 19-496, limits assumed)
T3 sequence: T1 sequence with A407S, K458A
Experimental: as §1, §2, §3

[4] = biological target: T4, mutant Ang2 protein, P452 substituted with alanine, FLAG-tagged at its N-terminal (human, UniProt O15123 19-496, limits assumed)
T4 sequence: T1 sequence with A407S, P442A
Experimental: as §1, §2, §3

B1: SAIT-ANG2-AB-m10D6 (antibody, V domains shown)
VH: DVQLQESGPGLVKPSQSLSLTCTVTGYSITSDYAWNWIRQFPGNKLEWMGYINYSGNTDYNPSLKSRSSITRDTSKNQFFLQLNSVTTGDTATYYCARGNFEGAMDYWGQGTSVTVSS
VL: SIVMTQTPKFLLVSAGDRVTITCKASQSVSNDVAWYQQKPGQSPKLLIYYASNRYPGVPDRFTGSGYGTDFTFTISTVQAEDLAVYFCQQDYSSPWTFGGGTKLEIK
notes: also called antibody 10D6; anti-Ang2 antibody (10D6)
B1 was tested, and the “binding affinity (%) with mutant Ang2 against the binding affinity with the native Ang2” value (shortened to “binding affinity (%) with mutant Ang2”) [1] was 101%, the “binding affinity (%) with mutant Ang2” value [2] was 105% and the “binding affinity (%) with mutant Ang2” value [3] was 110%. For the same binder, the “binding affinity (%) with mutant Ang2” value [4] was 102%.
